# From US20210017226A1 (PEPTION, published 2021)
# Ends that are not written are not given here.
# T1: PTD8 (Ec-AP_159-168), synthetic peptide LVAHVTSRKC (Escherichia coli)
# T1 construct: also called control peptide (unrelated) in the Cas9 blots
# T1 peptide: LVAHVTSRKC
# T2: PTD10 (Hs-PDGF-B_136-145), synthetic peptide IEIVRKKPIFC (human)
# T2 peptide: IEIVRKKPIFC
# T3: purified horseradish peroxidase (HRP) protein (horseradish, UniProt P00433 31-338)
# T3 sequence (looked up): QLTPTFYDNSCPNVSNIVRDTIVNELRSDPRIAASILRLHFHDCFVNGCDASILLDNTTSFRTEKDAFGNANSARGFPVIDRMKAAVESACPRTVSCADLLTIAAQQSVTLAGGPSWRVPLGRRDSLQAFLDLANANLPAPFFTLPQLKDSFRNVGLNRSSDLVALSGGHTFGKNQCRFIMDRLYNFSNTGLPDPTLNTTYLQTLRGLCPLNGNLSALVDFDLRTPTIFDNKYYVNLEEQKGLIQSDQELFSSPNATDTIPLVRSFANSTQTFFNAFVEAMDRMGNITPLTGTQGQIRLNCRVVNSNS
# B1: C9-813-CAA2 (dimer, parallel-linker-antiparallel), recombinant CAAP oligopeptide-AP fusion protein (designed binder, not shown: small tags and cut ends; large carriers)
# chain: MHHHHHHELLLSVEVQQLCYPENLEYLFIEKL
# notes: also called rAb C9-813-CAA2; dimer construct
# B2: PTD20 (2GS6H), synthetic linker-His-tag oligopeptide (peptide)
# peptide: GSGSHHHHHH
# notes: also called linker-His-tag only; negative control
# B3: V5C2-L-HRPC2, purified polypeptide with two CAAP box dimer arms designed to interact with V5 epitope and HRP (designed binder)
# chain: MSRKEARELCYPENGLEALIRSGGGSGGGSGGGSYYLRKRILCYPENQVLERSNEGSGSKLLEHHHHHH
# Legend:
# [1] = biological target: T1, PTD8 (Ec-AP_159-168), synthetic peptide …; test: dot blot, peptide spotted on NC membrane, anti-6His Ab-HRP detection
# [2] = biological target: T4, Cas9 protein without any tag (no tag), recombinant Streptococcus pyogenes Cas9 (Streptococcus pyogenes, UniProt Q99ZW2 1-1368); test: dot blot (non-denatured) and western blot (denatured), anti-6His Ab-HRP detection
# T4 construct: also called Cas9 (no tag); tagless Cas9
# [3] = biological target: T1, PTD8 (Ec-AP_159-168), synthetic peptide …; test: dot blot, anti-6His Ab-HRP detection
# [4] = biological target: T1, PTD8 (Ec-AP_159-168), synthetic peptide …; test: dot blot, AP fusion as 1st Ab, NBT/BCIP
# [5] = biological target: T2, PTD10 (Hs-PDGF-B_136-145), synthetic …; test: dot blot, anti-6His Ab-HRP detection
# [6] = biological target: T3, purified horseradish peroxidase (HRP) …; test: dot blot, HRP captured by V5C2-L-HRPC2 bound to immobilized PTD19, chromogenic substrate
# T4 sequence (Q99ZW2 whole entry): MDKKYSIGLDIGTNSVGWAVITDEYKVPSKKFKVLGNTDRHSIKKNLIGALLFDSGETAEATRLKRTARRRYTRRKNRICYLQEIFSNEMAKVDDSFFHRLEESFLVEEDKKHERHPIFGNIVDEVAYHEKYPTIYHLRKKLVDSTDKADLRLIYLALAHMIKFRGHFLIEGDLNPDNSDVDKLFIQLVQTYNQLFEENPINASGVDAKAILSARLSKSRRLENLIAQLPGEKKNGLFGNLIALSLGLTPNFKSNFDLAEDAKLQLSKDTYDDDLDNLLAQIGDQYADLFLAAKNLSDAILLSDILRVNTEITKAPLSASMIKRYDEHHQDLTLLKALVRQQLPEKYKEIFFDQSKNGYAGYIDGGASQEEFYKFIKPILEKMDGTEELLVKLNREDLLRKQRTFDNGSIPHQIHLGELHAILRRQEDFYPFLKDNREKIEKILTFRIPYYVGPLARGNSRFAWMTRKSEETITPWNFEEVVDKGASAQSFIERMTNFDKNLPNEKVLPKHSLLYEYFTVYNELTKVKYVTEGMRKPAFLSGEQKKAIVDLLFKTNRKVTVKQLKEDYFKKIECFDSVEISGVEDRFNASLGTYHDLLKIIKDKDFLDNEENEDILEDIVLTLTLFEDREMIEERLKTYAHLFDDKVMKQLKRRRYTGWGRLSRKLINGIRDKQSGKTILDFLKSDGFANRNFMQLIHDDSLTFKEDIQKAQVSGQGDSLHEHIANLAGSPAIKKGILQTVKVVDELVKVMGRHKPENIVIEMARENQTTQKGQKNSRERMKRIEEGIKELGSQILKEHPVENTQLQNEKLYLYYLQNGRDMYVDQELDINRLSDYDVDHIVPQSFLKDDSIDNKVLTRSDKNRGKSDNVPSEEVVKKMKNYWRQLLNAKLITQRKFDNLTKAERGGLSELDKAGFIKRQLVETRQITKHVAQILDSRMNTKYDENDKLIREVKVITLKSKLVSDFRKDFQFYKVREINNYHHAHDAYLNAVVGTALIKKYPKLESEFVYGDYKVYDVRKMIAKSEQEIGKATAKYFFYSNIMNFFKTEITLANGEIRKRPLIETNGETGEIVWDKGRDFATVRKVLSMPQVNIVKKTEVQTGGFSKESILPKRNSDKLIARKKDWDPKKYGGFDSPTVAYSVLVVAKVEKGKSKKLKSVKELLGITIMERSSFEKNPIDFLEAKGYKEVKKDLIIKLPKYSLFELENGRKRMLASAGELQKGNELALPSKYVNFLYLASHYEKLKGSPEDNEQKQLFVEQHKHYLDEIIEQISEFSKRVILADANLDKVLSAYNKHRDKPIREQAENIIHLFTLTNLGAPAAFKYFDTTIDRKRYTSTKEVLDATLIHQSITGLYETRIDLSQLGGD
Binder,binding result [3],binding result [5],also measured
"LLQVDVILLCYPENLEQIKIRLFGSGSHHHHHH (designed binder, also: dimer, also called sAb dimer; CCAAP sAb dimer) [PTD14 (Sp-C9_CAA813-821PAPH), synthetic His-tagged CAAP oligopeptide dimer]",–,–,binding result [1]: no binding; binding result [2]: binds
"EYRLYLRALCYPENLSRAYLSYEGSGSHHHHHH (designed binder, also: dimer, parallel and antiparallel)",binds,–,–
B1,–,–,binding result [4]: no binding
"DLDYAQLRDKCYPENEDRLQSYDLDGSGSHHHHHH (designed binder, also: dimer, parallel and antiparallel, also called Anti-PDGF sAb)",–,binds,–
B2,no binding,no binding,–
B3,–,–,binding result [6]: binds
